Reference: paper PMC4495402

Biological target: Xenopus histone H3/H4 tetramer (Xenopus), P84233
Test: SEC-MALS
Details: remark: other sources report otherwise

stoichiometry N | Binder
1 | human Spt2 histone-binding domain 571–685 (hSpt2C), Q68D10 571-685 (domain or fragment) GPQRLPFPTGYKRQREYEEEDDDDDEYDSEMEDFIEDEGEPQEEISKHIREIFGYDRKKYKDESDYALRYMESSWKEQQKEEAKSLRLGMQEDLEEMRREEEEMQRRRAKKLKRR
1 | SUMO-tagged hSpt2C(571–685), Q68D10 571-685 (domain or fragment) GPQRLPFPTGYKRQREYEEEDDDDDEYDSEMEDFIEDEGEPQEEISKHIREIFGYDRKKYKDESDYALRYMESSWKEQQKEEAKSLRLGMQEDLEEMRREEEEMQRRRAKKLKRR
